Target: SARS-CoV-2 receptor-binding domain, wild-type (SARS-CoV-2) (UniProt P0DTC2)
Assay: AlphaScreen or HTRF

**Q.** How did the AlphaLISA signal turn out when “SARS-CoV-2 receptor-binding domain, wild-type (from UniProt P0DTC2 319-541) (domain or fragment)” was run?
**A.** 29000 CPS
